How the values were obtained:
[1] = biological target: IL-10 receptor of HEK-BLUE IL-10 cells (the cells express all the components of the IL-10 signaling pathway); test: cell-based or functional assay
human TNFα (human) = human TNFα (human) (UniProt P01375); test: cell-based or functional assay
human TNFα (human), sequence (P01375 77-233 limits assumed): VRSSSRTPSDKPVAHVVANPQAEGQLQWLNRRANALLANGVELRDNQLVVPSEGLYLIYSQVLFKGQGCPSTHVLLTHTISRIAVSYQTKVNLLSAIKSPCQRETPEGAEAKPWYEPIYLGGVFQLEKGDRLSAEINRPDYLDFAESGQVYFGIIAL

recombinant human IL-10 (BioLegend #573204) (from UniProt P22301 19-178) (ligand)
EC50 (pM), HEK-BLUE IL-10 signaling assay (SEAP) [1]: 21 pM

Etanercept (PRO078) (Fc fusion)
IC50 (nM, replicate 2), inhibition of TNFα signaling in HEK-BLUE TNFα cells (human TNFα (human)): 0.07 nM

From patent publication US20230203158A1
